Measurements reported in patent publication US20250171532A1 (NB HEALTH LABORATORY, published 2025).
Positions count from the first letter of the chain named. Where two headings read alike, the source gives them in different places.

Legend:
human LPA1 [1] = biological target: T1, human LPA1 (human, UniProt Q92633 1-364); test: cell-based or functional assay
mouse LPA1 [2] = biological target: T2, mouse LPA1 (mouse, UniProt P61793 1-364); test: cell-based or functional assay
human LPA1 [3] = biological target: T1, human LPA1; test: cell-based or functional assay; remark: listed apart in the source
mouse LPA1 [4] = biological target: T2, mouse LPA1; test: cell-based or functional assay; remark: listed apart in the source
human LPA1 [5] = biological target: T1, human LPA1; test: cell-based or functional assay; remark: listed apart in the source
[6] = biological target: T3, human LPA2 with FLAG tag (human LPA2 gene transfected cell) (human, UniProt Q9HBW0 1-348); test: flow cytometry, transfected HEK293FT cells, histogram shift
T3 construct: also called EDG4; not shown: FLAG tag added at the 5' terminal of the gene
T3 sequence (Q9HBW0 other isoform, or with tags, fused parts or gaps): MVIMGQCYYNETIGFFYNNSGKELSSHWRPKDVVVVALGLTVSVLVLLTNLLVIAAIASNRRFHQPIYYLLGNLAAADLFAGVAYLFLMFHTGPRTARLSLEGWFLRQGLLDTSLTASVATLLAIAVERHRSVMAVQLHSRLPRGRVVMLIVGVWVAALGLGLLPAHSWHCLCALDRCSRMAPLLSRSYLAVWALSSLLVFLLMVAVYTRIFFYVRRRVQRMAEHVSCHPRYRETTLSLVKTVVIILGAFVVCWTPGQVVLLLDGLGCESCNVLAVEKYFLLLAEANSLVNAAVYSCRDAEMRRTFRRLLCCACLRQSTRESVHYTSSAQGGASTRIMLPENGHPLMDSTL
Experimental: (§1) BTEK293FT cell was transfected with 10 μg of an expression vector carrying each synthetic gene using Lipofectamine 2000, to prepare a human LPA1 gene transfected cell, a mouse LPA1 gene transfected cell, a human LPA2 gene transfected cell, a mouse LPA2 gene transfected cell, a human LPA3 gene transfected cell, and a mouse LPA3 gene transfected cell.
(§2) The next day, the cells were washed with PBS, then detached from the cell culture dishes by an enzyme-free cell dissociation buffer (Thermo Fisher Scientific, Inc.), then washed with PBS, and then collected by centrifugation. Goat serum (Thermo Fisher Scientific, Inc.) was diluted by 2 times in FACS buffer (PBS containing 1% o of FBS), into which the cells were suspended at 1×10⁷ cells/mL. This suspension was allowed to stand at 4° C. for 30 minutes to block the cells. The cells were collected by centrifugation and suspended in FACS buffer at 4×10⁶ cells/mL, and this suspension was dispensed into a V-bottom 96-well plate (Thermo Fisher Scientific, Inc.) at 25 μL (1×10⁵ cells)/well.
(§3) The cells were collected by centrifugation and washed with 120 μL of FACS buffer. This washing operation was repeated twice. To the cell sediment, 25 μL each of Goat Anti-Mouse IgG H&L (DyLight 650) (Abcam) that was a secondary antibody diluted by 500 times in FACS buffer was dispensed, then suspended, and then allowed to stand at 4° C. for 1 hour. The cells were washed twice, then suspended in 50 μL of FACS buffer, and the whole content thereof was transferred to a V-bottom 96-well plate (Greiner), to measure the binding of antibodies to the cells using a flow cytometer (Agilent Novocyte).

[7] = biological target: T4, human LPA3 with FLAG tag (human LPA3 gene transfected cell) (human, UniProt Q9UBY5 1-353); test: as above
T4 construct: also called EDG7; not shown: FLAG tag added at the 5' terminal of the gene
T4 sequence: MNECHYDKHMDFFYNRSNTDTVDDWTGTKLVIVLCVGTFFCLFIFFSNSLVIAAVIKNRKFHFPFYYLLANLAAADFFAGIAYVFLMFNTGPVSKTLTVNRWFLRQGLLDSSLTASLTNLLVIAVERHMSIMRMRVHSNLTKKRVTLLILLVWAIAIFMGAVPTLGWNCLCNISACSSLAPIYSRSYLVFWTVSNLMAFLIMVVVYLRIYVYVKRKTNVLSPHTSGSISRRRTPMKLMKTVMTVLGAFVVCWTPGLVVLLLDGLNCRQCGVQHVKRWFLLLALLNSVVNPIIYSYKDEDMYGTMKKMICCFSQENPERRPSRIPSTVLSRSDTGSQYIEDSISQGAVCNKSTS
Experimental: as §1, §2, §3

[8] = biological target: T5, mouse LPA2 with FLAG tag (mouse LPA2 gene transfected cell) (mouse, UniProt Q9JL06 1-348); test: as above
T5 construct: not shown: FLAG tag added at the 5' terminal of the gene
T5 sequence (Q9JL06 whole entry): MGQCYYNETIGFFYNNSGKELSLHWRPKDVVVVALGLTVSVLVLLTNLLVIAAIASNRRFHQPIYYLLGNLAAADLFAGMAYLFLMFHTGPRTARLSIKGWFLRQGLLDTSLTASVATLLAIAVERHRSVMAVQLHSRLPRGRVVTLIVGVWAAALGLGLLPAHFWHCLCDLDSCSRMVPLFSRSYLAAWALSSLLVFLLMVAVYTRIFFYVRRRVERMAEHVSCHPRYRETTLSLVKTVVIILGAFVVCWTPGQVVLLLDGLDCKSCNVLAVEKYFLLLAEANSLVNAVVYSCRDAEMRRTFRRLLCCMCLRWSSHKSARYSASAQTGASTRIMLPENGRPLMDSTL
Experimental: as §1, §2, §3

[9] = biological target: T6, mouse LPA3 with FLAG tag (mouse LPA3 gene transfected cell) (mouse, UniProt Q9EQ31 1-354); test: as above
T6 construct: not shown: FLAG tag added at the 5' terminal of the gene
T6 sequence: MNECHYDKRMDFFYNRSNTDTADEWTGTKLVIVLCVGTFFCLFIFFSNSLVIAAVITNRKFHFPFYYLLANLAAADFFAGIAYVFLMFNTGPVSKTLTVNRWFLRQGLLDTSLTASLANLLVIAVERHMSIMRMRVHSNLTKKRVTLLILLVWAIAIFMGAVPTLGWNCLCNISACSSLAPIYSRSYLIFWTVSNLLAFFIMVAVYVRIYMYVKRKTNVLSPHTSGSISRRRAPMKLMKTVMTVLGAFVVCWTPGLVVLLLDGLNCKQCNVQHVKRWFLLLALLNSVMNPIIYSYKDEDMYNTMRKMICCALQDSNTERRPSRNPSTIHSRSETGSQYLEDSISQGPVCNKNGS
Experimental: as §1, §2, §3

human LPA1 [10] = biological target: T1, human LPA1; test: flow cytometry, human LPA1-stably expressing CHO cells, median fluorescence intensity
Text: (§4) The human LPA1-stably expressing CHO cell and the mouse LPA1-stably expressing CHO cell were washed with PBS, then detached from the cell culture dishes by an enzyme-free cell dissociation buffer (Thermo Fisher Scientific, Inc.), then washed with PBS, and then collected by centrifugation. The human LPA1-stably expressing CHO cell and the mouse LPA1-stably expressing CHO cell were suspended at 1×10⁷ cells/mL in Fc Block (Sci-Tech Biosciences, Inc.) diluted by 500 times in FACS buffer, and then allowed to stand at 4° C. for 30 minutes to block the cells. The cells were collected by centrifugation and suspended in FACS buffer at 4×10⁶ cells/mL, and this suspension was dispensed into a V-bottom 96-well plate (Thermo Fisher Scientific, Inc.) at 25 μL (1×10⁵ cells)/well. As primary antibodies, the eleven types of LPA1 antibodies produced and purified by the method described above and a mouse isotype control antibody (Fujifilm Wako Pure Chemicals Corporation) were diluted stepwise, which was added to each well at 25 μL/well, and allowed to stand at 4° C. for 1 hour. The cells were collected by centrifugation and washed with 120 μL of FACS buffer. This washing operation was repeated twice. To the cell sediment, 25 μL each of Goat Anti-Mouse IgG H&L (DyLight 650) (Abcam) that was a secondary antibody diluted by 500 times in FACS buffer was dispensed, then suspended, and then allowed to stand at 4° C. for 1 hour. The cells were washed twice, then suspended in 50 μL of FACS buffer, and the binding of antibodies to the cells was measured using a flow cytometer (Agilent Novocyte).
(§5) A graph was created, in which a concentration of the antibody was plotted on the […] axis, and a median fluorescence intensity of the flow cytometer histogram was plotted on the horizontal axis. All of the eleven antibodies were confirmed to dose-dependently bind to the human LPA1-stably expressing CHO cell and the mouse LPA1-stably expressing CHO cell. The results of the binding of each antibody to the human LPA1-stably expressing CHO cell are presented in FIG. 2A to FIG. 2K, and the results of the binding of each antibody to the mouse LPA1-stably expressing CHO cell are presented in FIG. 3A to FIG. 3K.

mouse LPA1 [11] = biological target: T2, mouse LPA1; test: flow cytometry, mouse LPA1-stably expressing CHO cells, median fluorescence intensity
Text: as §4, §5

human LPA1 [12] = biological target: T1, human LPA1; test: flow cytometry, human LPA1-stably expressing CHO cells, median fluorescence intensity; remark: listed apart in the source
Text: as §4
Subsequently, the binding activity of the human LPA1-stably expressing CHO cell to human LPA1 was measured according to the method in Example 6. A graph was created, in which a concentration of the antibody was plotted on the […] axis, and a median fluorescence intensity of the flow cytometer histogram was plotted on the horizontal axis. […] The intracellular cAMP signaling inhibitory activity was also measured according to the method in Example 7.

T2 sequence (P61793 whole entry): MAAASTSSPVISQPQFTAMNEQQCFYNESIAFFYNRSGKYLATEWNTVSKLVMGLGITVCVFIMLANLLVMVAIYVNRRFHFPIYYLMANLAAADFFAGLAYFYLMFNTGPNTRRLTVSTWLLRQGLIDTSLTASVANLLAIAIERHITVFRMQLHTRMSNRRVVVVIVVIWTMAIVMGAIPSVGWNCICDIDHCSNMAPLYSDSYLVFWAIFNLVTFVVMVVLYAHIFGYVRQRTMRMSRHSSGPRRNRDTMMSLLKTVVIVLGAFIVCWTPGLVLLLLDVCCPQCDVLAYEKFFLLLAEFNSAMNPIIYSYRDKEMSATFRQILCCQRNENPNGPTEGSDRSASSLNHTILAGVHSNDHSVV
T1 sequence (Q92633 whole entry): as the sequence (P61793 whole entry) above, with A4I, S8I, Q22P, Y40H, V61I, D193E, H194N, V269I, N331S, N335T counted along it

B1: 210309-4-A (antibody, mouse IgG1, V domains shown)
VH: QVQLQQSGAELARPGASVKLSCKASGYTFTSYGISWVKQRTGQGLEWIGEIYPRSGNTYYNEKFKGKATLTADKSSSTAYMELRSLTSEDSAVYFCARESISRRLGWNFDVWGTGTTVTVSS
VL: DIHMTQSPASLSASVGETVTITCRASENIYSFLAWYQQKQGKSPHLVVYNAKTLTEGVPSRFSGSGSGTHFSLKINSLQPEDFGIYYCQHHYGPPLTFGAGTKLELK
notes: Mouse monoclonal from human LPA1 immunization
- Intracellular cAMP signaling inhibition (Inhibition rate %/100 nM) (human LPA1 [1]): 95%
- Intracellular cAMP signaling inhibition (Inhibition rate %/100 nM) (mouse LPA1 [2]): 50%
- Intracellular cAMP signaling inhibition IC50 (human LPA1 [3]): 5.3 nM
- Intracellular cAMP signaling inhibition IC50 (mouse LPA1 [4]): 23.8 nM
- Intracellular cAMP signaling inhibition IC50 (human LPA1 [5]): 4.5 nM
- binding result [6]: no binding (tested: 25 g/mL (so in the source))
- binding result [7]: no binding (tested: 25 g/mL (so in the source))
- binding result [8]: no binding (tested: 25 g/mL (so in the source))
- binding result [9]: no binding (tested: 25 g/mL (so in the source))
- EC50 (human LPA1 [10]): 1.5 nM
- EC50 (mouse LPA1 [11]): 1.1 nM
- EC50 (human LPA1 [12]): 1.4 nM

B2: h309-4-A-BP1 (antibody, human IgG1, kappa, L234A L235A, V domains shown)
VH: QVQLVQSGAEVKKPGASVKVSCKASGYTFTSYGISWVRQAPGQGLEWMGEIYPRSGNTYYNEKFKGRVTLTADKSTSTAYMELRSLTSEDTAVYFCARESISRRLGWNFDVWGQGTTVTVSS
VL: DIQMTQSPSSLSASVGDTVTITCRASENIYSFLAWYQQKPGKAPKLLIYNAKTLTEGVPSRFSGSGSGTHFSLTINSLQPEDFGIYYCQHHYGPPLTFGQGTKLEIKR
notes: also called humanized anti-LPA1 antibody
- Intracellular cAMP signaling inhibition IC50 (human LPA1 [5]): 4.4 nM
- EC50 (human LPA1 [12]): 4.3 nM

B3: h309-4-A-SS1 (antibody, human IgG1, kappa, L234A L235A, V domains shown)
VH: QVQLQESGPGLVKPSETLSLTCTASGYTFTSYGISWVRQTPGKGLEWIGEIYPRSGNTYYNEKFKGRATLSADKSKNQASLKLKSVTAADTAIYFCARESISRRLGWNFDVWGRGTLVTVSG
VL: DIQMTQTPSSLSASVGDRVTITCRASENIYSFLAWYQQKPGEAPKRVVYNAKTLTEGVPSRFSGSGSGTDFTLTISSLQPEDFATYYCQHHYGPPLTFGQGTKLEIKR
notes: as for B2
- Intracellular cAMP signaling inhibition IC50 (human LPA1 [5]): 5.2 nM
- EC50 (human LPA1 [12]): 4.9 nM

B4: h309-4-A-SG1 (antibody, human IgG1, kappa, L234A L235A, V domains shown)
VH: B2 VH with M48I, V68A, T87R, E89D, Q114T
VL: B3 VL with T7S, E42K, R46L, Q100A, I106L
notes: as for B2
- Intracellular cAMP signaling inhibition IC50 (human LPA1 [5]): 5.7 nM
- EC50 (human LPA1 [12]): 4.2 nM

B5: 309-4-A-Chimera (antibody, human IgG1, kappa, L234A L235A, V domains shown)
VH: B1 VH
VL: DIHMTQSPASLSASVGETVTITCRASENIYSFLAWYQQKQGKSPHLVVYNAKTLTEGVPSRFSGSGSGTHFSLKINSLQPEDFGIYYCQHHYGPPLTFGAGTKLELKR
notes: also called chimeric anti-LPA1 antibody
- Intracellular cAMP signaling inhibition IC50 (human LPA1 [5]): 1 nM
- EC50 (human LPA1 [12]): 4.4 nM
